# Test results from patent US20220098307A1 (WUHAN YZY BIOPHARMA, published 2022).
# Positions count from the first letter of the chain named. Numbers in names are those of the source.
# B1: M1IC-DG2-1 (bispecific antibody, human IgG1, kappa)
# chain: QVQLVESGGGVVQPGRSLRLSCAASGFTFSTYAMNWVRQAPGKGLEWVARIRSKYNNYATYYADSVKDRFTISRDDSKNTLYLQMNSLRAEDTAVYYCARHGNFGNSYVSWFAYWGQGTLVTVSSGGGGSGGGGSGGGGSQTVVTQEPSLTVSPGGTVTLTCRSSTGAVTTSNYANWVQQKPGQAPRGLIGGTNKRAPGVPARFSGSLLGGKAALTLSGVQPEDEAEYYCALWYSNLWVFGGGTKVEIKGGGGSDKTHTCPPCPAPPVAGPSVFLFPPKPKDTLMISRTPEVTCVVVAVSHEDPEVQFNWYVDGVEVHNAKTKPREEQFNSTFRVVSVLTVVHQDWLNGKEYKCKVSNKGLPAPIEKTISKTKGQPREPQVCTLPPSRDELTKNQVSLSCAVKGFYPSDIAVEWESNGQPENNYKTTPPVLDSDGSFFLVSKLTVDKSRWQQGNVFSCSVMHEALHNHYTQKSLSLSPGK
# heavy: EVKLDETGGGLVQPGRPMKLSCVASGFTFSDYWMNWVRQSPEKGLEWVAQIRNKPYNYETYYSDSVKGRFTISRDDSKSSVYLQMNNLRVEDMGIYYCTGSYYGMDYWGQGTSVTVSSASTKGPSVFPLAPSSKSTSGGTAALGCLVKDYFPEPVTVSWNSGALTSGVHTFPAVLQSSGLYSLSSVVTVPSSSLGTQTYICNVNHKPSNTKVDKKVEPKSCDKTHTCPPCPAPPVAGPSVFLFPPKPKDTLMISRTPEVTCVVVAVSHEDPEVQFNWYVDGVEVHNAKTKPREEQFNSTFRVVSVLTVVHQDWLNGKEYKCKVSNKGLPAPIEKTISKTKGQPREPQVYTLPPCRDELTKNQVSLWCLVKGFYPSDIAVEWESNGQPENNYKTTPPVLDSDGSFFLYSKLTVDKSRWQQGNVFSCSVMHEALHNHYTQKSLSLSPGK
# light: DVVMTQTPLSLPVSLGDQASISCRSSQSLVHSNGNTYLRWYLQKPGQSPKVLIYKVSNRFSGVPDRFSGSGSGTDFTLKISRVEAEDLGVYFCSQSTHVPWTFGGGTKLEIKRTVAAPSVFIFPPSDEQLKSGTASVVCLLNNFYPREAKVQWKVDNALQSGNSQESVTEQDSKDSTYSLSSTLTLSKADYEKHKVYACEVTHQGLSSPVTKSFNRGEC
# notes: structure 1 isotype control; CH2 DG2CH2; also called MlIC-DG2-1
# B2: M1IC-DG2D-1 (bispecific antibody, human IgG1, kappa)
# chain: B1 chain with D303A
# heavy: B1 heavy with D270A
# light: B1 light
# notes: structure 1 isotype control; CH2 DG2DCH2
# B3: M1IC-G2D-1 (bispecific antibody, human IgG1, kappa)
# chain: B1 chain with A298D, D303A
# heavy: B1 heavy with A265D, D270A
# light: B1 light
# notes: structure 1 isotype control; CH2 G2DCH2
# B4: M1IC-GG2-1 (bispecific antibody, human IgG1, kappa)
# chain: B1 chain with C263G, A298D
# heavy: B1 heavy with C230G, A265D
# light: B1 light
# notes: structure 1 isotype control; CH2 GG2CH2
# B5: M1IC-PG2-1 (bispecific antibody, human IgG1, kappa)
# chain: B1 chain with C263P, A298D
# heavy: B1 heavy with C230P, A265D
# light: B1 light
# notes: structure 1 isotype control; CH2 PG2CH2
# B6: M1IC-SG2-1 (bispecific antibody, human IgG1, kappa)
# chain: B1 chain with C263S, A298D
# heavy: B1 heavy with C230S, A265D
# light: B1 light
# notes: structure 1 isotype control; CH2 SG2CH2
# B7: PDL1-M1-G2 (bispecific antibody)
# chain: B1 chain with G250R, G252R, A298D
# heavy: not shown
# light: not shown
# notes: structure 1; PD-L1 x CD3; CH2 G2CH2
# B8: PDL1-M1-SG2 (bispecific antibody)
# chain: B1 chain with G250R, G252R, C263S, A298D
# heavy: not shown
# light: not shown
# notes: structure 1; PD-L1 x CD3; CH2 SG2CH2
# B9: PDL1-M1-FES (bispecific antibody)
# chain: QVQLVESGGGVVQPGRSLRLSCAASGFTFSTYAMNWVRQAPGKGLEWVARIRSKYNNYATYYADSVKDRFTISRDDSKNTLYLQMNSLRAEDTAVYYCARHGNFGNSYVSWFAYWGQGTLVTVSSGGGGSGGGGSGGGGSQTVVTQEPSLTVSPGGTVTLTCRSSTGAVTTSNYANWVQQKPGQAPRGLIGGTNKRAPGVPARFSGSLLGGKAALTLSGVQPEDEAEYYCALWYSNLWVFGGGTKVEIKRGRGSDKTHTCPPCPAPEFEGGPSVFLFPPKPKDTLMISRTPEVTCVVVDVSHEDPEVKFNWYVDGVEVHNAKTKPREEQYNSTYRVVSVLTVLHQDWLNGKEYKCKVSNKALPASIEKTISKAKGQPREPQVCTLPPSRDELTKNQVSLSCAVKGFYPSDIAVEWESNGQPENNYKTTPPVLDSDGSFFLVSKLTVDKSRWQQGNVFSCSVMHEALHNHYTQKSLSLSPGK
# heavy: not shown
# light: not shown
# notes: structure 1; PD-L1 x CD3; CH2 FES
# B10: PDL1-M1-LALA (bispecific antibody)
# chain: B9 chain with F268A, E269A, S365P
# heavy: not shown
# light: not shown
# notes: structure 1; PD-L1 x CD3; CH2 LALA
# Biological target: T1, Human CD3ε (human, UniProt P07766 23-126)
# T1 construct: CD3 on T cells isolated from human whole blood
# Assay: flow cytometry, human T cells
# Source text: 1) Cell preparation: T cells isolated from CD3-positive human whole blood were used for a CD3 end affinity detection of multifunctional antibody molecule; positive tumor cells of corresponding antigen were used for detecting affinity of tumor antigen; for example, CD38-positive MM. 1S cells (purchased from the Cell Resource Center of Shanghai Institutes for Biological Sciences, Chinese Academy of Sciences) or RPMI 8226 cells (purchased from the Cell Resource Center of Shanghai Institutes for Biological Sciences, Chinese Academy of Sciences) were used for CD38 antigen detection, and PD-L1 positive H358 cells (purchased from the Cell Resource Center of Shanghai Institutes for Biological Sciences, Chinese Academy of Sciences) were used for PD-L1 antigen detection, and so on. The cells were resuspended with 1% FBS-PBS, adjusted to a density of 4×10⁶/ml, and 50 μl of cells were taken from each well, and then plated at 2×10⁵ per well. Cell plating was operated on ice
# 2) Addition of the antibody: according to the experimental design, the antibody was diluted gradually, and dilution of antibody was operated on ice. For example, the initial concentration of antibody for dilution was 3000 nM, and the antibody was diluted by 3 times with 11 concentration gradients. The diluted antibody was added to a cell well at 50 μl per well, mixed well, and shaked and incubated at 4° C. 1100 rpm/min for 2 h; after washing, the cells were resuspend in 1% FBS-PBS, and a diluted secondary antibody PE anti-human IgG FC (Biolegend, 409304) was added with a final concentration of 8 ug/ml and a volume of 50 μl/well. At the same time, a well only added with cells and secondary antibody was set as a control, the components were mixed well, and incubated under shaking at 1100 rpm/min at 4° C. for 1 h;
# 5) Data analysis: the data was analyzed by a flow analysis software FlowJo 7.6 thereby obtaining an average fluorescence intensity of the specific antibody concentration, plotted by a Graphpad Prism 5 with the antibody concentration (nM) as an abscissa and the average fluorescence intensity as an ordinate; the EC50 value was calculated by the method of One site—Specific binding, and the EC50 value indicated the cell affinity of the antibody to the corresponding target antigen.
row,Binder,EC50
1,B1,120 nM
2,B2,128 nM
3,B3,101 nM
4,B4,168 nM
5,B5,116 nM
6,B6,122 nM
7,B7,191 nM
8,B8,177 nM
9,B9,200 nM
10,B10,153 nM

# Biological target: T2, Monkey CD3 (monkey)
# T2 construct: whole, on cells; also called CD3 of monkey CD3 positive T cells
# Assay: flow cytometry, monkey T cells
row,Binder,EC50
1,B1,130 nM
2,B2,181 nM
3,B3,143 nM
4,B4,166 nM
5,B5,146 nM
6,B6,222 nM
7,B7,239 nM
8,B8,194 nM
9,B9,207 nM
10,B10,196 nM
